Assay results: patent US20030064069A1 (CAMBRIDGE ANTIBODY TECHNOLOGY, published 2003)

Legend:
[1] = target: T1, Recombinant human TGFβ1 (active TGFβ1) (human, UniProt P01137 279-390); test: radioreceptor assay (RRA): scFv inhibits [125I]TGFβ1 binding to A549 cells; approx IC50
T1 construct: mature; Recombinant human TGFβ1 from R&D Systems; also called TGFb1
Text: (§1) The scFv fragments were subsequently tested for their ability to neutralise binding of ¹²⁵I-TGFβ₁ to A549 cells in a radioreceptor binding assay (RRA), using the protocol described in Example 3 (see below). For the RRA, individual clones were expressed as soluble scFv and subsequently purified from periplasmic preparations by immobilised metal affinity chromatography (IMAC) followed by fractionation of monomeric scFv by gel filtration FPLC on a Superdex 75 column (Pharmacia).
(§2) A549 cells were seeded into 24-well plates at 2×10⁵ cells per well for 24 hours in order to achieve >90% confluency. Immediately before the assay, monolayers were washed twice with buffer (1:1 DMEM:Hams-F12) and 0.5 ml assay buffer (1:1 DMEM:Hams F12+0 1% BSA) was added. Two or three-fold serial dilutions of antibodies were prepared in assay buffer and added to an equal volume of 40 pM [¹²⁵I]TGFβ₁ in assay buffer.

[2] = target: T1, Recombinant human TGFβ1 (active TGFβ1); test: radioreceptor assay, his-preps of scFv (FIG. 2); reference JT182 scFv
Description: as §2
Purified preparations of SL15S scFv, SL15A IgG4, SL15S IgG4 and Mab ID.11.16 (Genzyme mAb) were also analysed (FIG. 3).

[3] = target: T2, Recombinant human latent TGFβ1 (human, UniProt P01137 30-278; P01137 279-390); test: radioreceptor assay and TF1 proliferation assay in the presence of latent TGFβ1
T2 construct: domain: latency associated peptide;mature; From R&D Systems
T2 sequence (P01137 30-278 limits assumed, chain 1 of 2): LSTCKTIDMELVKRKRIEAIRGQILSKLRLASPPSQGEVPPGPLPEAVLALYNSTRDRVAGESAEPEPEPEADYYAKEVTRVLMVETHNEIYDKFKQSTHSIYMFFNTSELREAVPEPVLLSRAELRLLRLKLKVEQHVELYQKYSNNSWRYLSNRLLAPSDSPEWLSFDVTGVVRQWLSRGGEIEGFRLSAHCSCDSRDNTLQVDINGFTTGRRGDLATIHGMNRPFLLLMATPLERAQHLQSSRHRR
T2 sequence (P01137 279-390 limits assumed, chain 2 of 2): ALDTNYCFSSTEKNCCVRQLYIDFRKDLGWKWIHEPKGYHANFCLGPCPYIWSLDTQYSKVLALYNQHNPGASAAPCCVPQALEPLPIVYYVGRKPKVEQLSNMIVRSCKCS

[4] = target: T1, Recombinant human TGFβ1 (active TGFβ1); test: radioreceptor assay: inhibition of [125I]TGFβ1 binding to A549 cells; reference CS37 scFv
Text: as §1, §2

T1 sequence (P01137 279-390 limits assumed): as the sequence (P01137 279-390 limits assumed, chain 2 of 2) above

B1: CS37 scFv (31G9 VH/CS37 VL) (scFv, V domains shown)
VH: QVQLVQSGGGVVQPGRSLRLSCAASGFTFSSYGMHWVRQAPGKGLEWVAVISYDGSIKYYADSVKGRFTISRDNSKNTLYLQMNSLRAEDTAVYYCARTGEYSGYDTSGVELWGQGTTVTVSS
VL: EIVLTQSPSSLSASVGDRVTITCRASQGIGDDLGWYQQKPGKAPILLIYGTSTLQSGVPSRFSGSGSGTDFTLTINSLQPEDFATYYCLQDSNYPLTFGGGTRLEIK
notes: not shown: scFv linker, domain order and tag (on phage: the pCANTAB6 gene III fusion); WO97/13844 is cited for CS37
B1 gave an IC50 [1] of 10000 to 15000 pM.

B2: JT182 scFv (JT182 VH/CS37 VL) (scFv, V domains shown)
VH: QVQLVESGGGVVQPGRSLRLSCAASGFTFSSYGMHWVRQAPGKELEWVAVISYDGSIKYYADSVKGRFTISRDNSKNTLYLQMNSLRAEDTAVYYCARTGEYSGYDTPASPDWGQGTTVTVSS
VL: EIVLTQSPSSLSASVGDRVTITCRASQGIGDDLGWYQQKPGKAPILLIYGTSTLQSGVPSRFSGSGSGTDFTLTINSLQPEDFATYYCLQDSNYPLTFGGGTRLEIK
notes: used as his-prep; not shown: scFv linker, domain order and His tag
Work on B2 yielded an IC50 [1] of 500 to 1000 pM.

B3: SL15S scFv (SL15 VH/SL15S VL) (scFv, V domains shown)
VH: EVQLVESGGGVVQPGRSLRLSCAASGFTFSSYGMHWVRQAPGKELEWVAVISYDGSIKYYADSVKGRFTISRDNSKNTLYLQMNSLRAEDTAVYYCARTGEYSGYDTDPQYSWGQGTTVTVSS
VL: EIVLTQSPSSLSASVGDRVTITCRSSQGIGDDLGWYQQKPGKAPILLIYGTSTLQSGVPSRFSGSGSGTDFTLTINSLQPEDFATYYCLQDSNYPLTFGGGTRLEIK
notes: soluble scFv was purified by IMAC ('his-preps') and FPLC; also called CAT-191; CAT 191; not shown: scFv linker, domain order and His/other tag (on phage: the pCANTAB6 gene III fusion)
For B3, the “fold more active than JT182 scFv” value [2] was 10 fold, the binding result [3] was “no binding” and the “fold better than CS37 (IC50 in the RRA)” value [4] was no less than 100 fold. For the same binder, the IC50 [1] was roughly 100 pM.
